B1: KLHDC10 (parent)
chain: FGGTGIPFGESNGNGVHVCNVKYK

Variants of: B1
Assay: protein stability index of a GFP-peptide fusion (GPS, HEK-293T) (PSI 1-6); higher = more stable
Details: c terminus: a fixed tail appended
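Note: lentivirally expressed fusions sorted by FACS into six bins by GFP to DsRed ratio, PSI derived from sequencing read proportions per bin multiplied by bin number.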

Variant | protein stability index
E10P | 1.95
E10W | 2.59
E10Q | 2.94
E10V | 2.49
E10R | 2.46
E10N | 3.06
E10T | 1.62
E10S | 3.04
E10Y | 1.45
Y23N | 2.49
Y23M | 2.1
Y23R | 2.17
Y23D | 3.3
Y23A | 2.76
Y23G | 2.04
Y23I | 2.38
Y23S | 2.99
Y23E | 2.47
Y23K | 2.01
Y23C | 2.54
Y23T | 2.14
Y23H | 2.43
Y23F | 2.03
Y23W | 2.62

Variant | protein stability index
Y23V | 2.23
Y23P | 2.41
Y23Q | 2.28
Y23L | 2.07
K22F | 1.63
K22V | 2.24
K22I | 1.83
K22H | 2.07
K22N | 1.8
K22R | 2.34
K22D | 2.35
K22Q | 2.89
K22Y | 1.95
K22L | 1.29
K22E | 2.4
K22C | 1.24
K22P | 1.91
K22A | 2.53
K22T | 1.98
K22G | 1.98
K22W | 2.1
K22M | 1.9
K22S | 1.29
G13H | 1.77

Variant | protein stability index
G13F | 1.9
G13R | 2.36
G13Q | 2.38
G13C | 1.59
G13I | 1.38
G13K | 2.06
G13N | 1.7
G13S | 1.92
G13W | 2.03
G13D | 2.18
G13Y | 2.09
G13M | 2.73
G13L | 2.05
G13E | 2.28
G13P | 1.91
G13V | 2.17
G13T | 2.58
G13A | 2.02
N14G | 1.54
N14I | 1.2
N14L | 1.81
N14A | 1.82
N14T | 1.98
N14P | 1.91

Variant | protein stability index
N14S | 1.9
N14M | 1.99
N14F | 1.62
N14R | 2.04
N14E | 2.47
N14W | 3.08
N14V | 2.67
N14K | 1.81
N14H | 2.12
N14C | 1.87
N14Y | 1.62
N14Q | 2.03
N14D | 1.87
H17C | 1.75
H17P | 2.68
H17Q | 2.45
H17M | 1.37
H17I | 1.91
H17V | 2.32
H17S | 3.15
H17G | 1.63
H17E | 2.48
H17N | 2.03
H17A | 1.92

Variant | protein stability index
H17L | 2.08
H17W | 1.64
H17T | 2.22
H17D | 2.54
H17K | 2.01
H17Y | 1.52
H17R | 2.13
H17F | 2.34
N12Y | 2.59
N12L | 1.87
N12W | 1.74
N12G | 1.62
N12R | 1.51
N12C | 1.63
N12M | 1.9
N12I | 1.58
N12F | 1.41
N12K | 1.82
N12E | 2.11
N12T | 1.97
N12V | 1.6
N12D | 2.33
N12P | 1.73
N12H | 2.22

Variant | protein stability index
N12A | 1.85
N12Q | 2.06
N12S | 1.74
S11V | 2.35
S11M | 2.25
S11H | 2.2
S11P | 2.3
S11G | 1.54
S11I | 2.73
S11Y | 1.65
S11R | 1.97
S11E | 2.82
S11A | 1.97
S11F | 1.72
S11Q | 2.06
S11D | 2.52
S11N | 1.91
S11W | 2.4
S11K | 1.87
S11T | 1.96
S11C | 1.82
S11L | 1.62
V21R | 1.72
V21P | 1.92

Variant | protein stability index
V21M | 1.95
V21I | 2.78
V21H | 1.7
V21C | 2.04
V21N | 2.54
V21L | 1.58
V21Q | 2.14
V21T | 2.17
V21F | 1.82
V21Y | 2.5
V21S | 2.38
V21G | 1.78
V21W | 1.86
V21E | 2.31
V21D | 2.14
V21K | 1.98
V21A | 1.74
C19F | 2.62
C19W | 1.71
C19R | 2.35
C19L | 1.97
C19E | 2.76
C19M | 2.15
